Measured values published in patent US10808009B2, “Peptide conjugates” (BIONIZ, LLC, priority 2011, dated 2020).
No end group written: not given here. MAL‑PEG24 = bi-functional PEG24 molecule (Mal-PEG24)

What was measured:
Format in all cases: cell-based
IL-2 = IL-2 (Homo sapiens, UniProt P60568); assay: CTLL2 proliferation assay (WST-1), IL-2, dual peptide; conditions: CTLL2 cells, IL-2 5 u/ml and 10 u/ml, increasing BNZ132-PEG-130 (0.1-10 uM)
IL-15 = IL-15 (Homo sapiens, UniProt P40933); assay: CTLL2 proliferation assay (WST-1), IL-15, dual peptide; conditions: CTLL2 cells, IL-15 2.5 ng/ml and 5 ng/ml, increasing BNZ132-PEG-130 (0.1-10 uM)
IL-6 = assay: T1165 proliferation assay (WST-1), IL-6, dual peptide; conditions: T1165 cells, IL-6 0.1 ng/ml, increasing BNZ132-PEG-130

Sequence of IL-15 (P40933 49-162): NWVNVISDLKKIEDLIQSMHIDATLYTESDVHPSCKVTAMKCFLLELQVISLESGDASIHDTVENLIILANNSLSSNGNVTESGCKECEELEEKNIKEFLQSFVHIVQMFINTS
Sequence of IL-2 (P60568 21-153): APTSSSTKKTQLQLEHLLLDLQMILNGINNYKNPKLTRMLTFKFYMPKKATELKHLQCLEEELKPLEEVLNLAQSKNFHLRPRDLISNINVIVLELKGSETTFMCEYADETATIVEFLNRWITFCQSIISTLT

IKEFLQSFIHIVQSIINT (SEQ ID NO: 130)—MAL-PEG24—SLTHLIERSSRAVLQSLLRASRQ (SEQ ID NO: 131) (linker (positions not given here) via MAL‑PEG24; also: MAL-PEG24 attachment sites not given here) [BNZ132-PEG-130, BNZ132-1 conjugated to BNZ130 via a PEG24 linker; dual peptide antagonist]
inhibited in a dose response manner: inhibition of IL-2-induced proliferation (IL-2) | inhibition of IL-15-induced proliferation (IL-15) | inhibition of IL-6-induced proliferation (IL-6)
